# Assay results reported in paper PMC3542428, “Functional Insights from the Crystal Structure of the N-Terminal Domain of the Prototypical Toll Receptor” (Structure(London, England:1993), 2013).
# T1: full-length Toll ECD (extracellular domain of Drosophila melanogaster Toll) (Drosophila melanogaster, UniProt P08953 28-807)
# T1 construct: Toll, Drosophila melanogaster, UniProt P08953, full-length extracellular domain; Also used as the target of the functional row on endogenous Toll of S2 cells (no molecule of its own was made for the whole receptor); also called full-length ECD; full-length ectodomain
# T1 sequence (looked up): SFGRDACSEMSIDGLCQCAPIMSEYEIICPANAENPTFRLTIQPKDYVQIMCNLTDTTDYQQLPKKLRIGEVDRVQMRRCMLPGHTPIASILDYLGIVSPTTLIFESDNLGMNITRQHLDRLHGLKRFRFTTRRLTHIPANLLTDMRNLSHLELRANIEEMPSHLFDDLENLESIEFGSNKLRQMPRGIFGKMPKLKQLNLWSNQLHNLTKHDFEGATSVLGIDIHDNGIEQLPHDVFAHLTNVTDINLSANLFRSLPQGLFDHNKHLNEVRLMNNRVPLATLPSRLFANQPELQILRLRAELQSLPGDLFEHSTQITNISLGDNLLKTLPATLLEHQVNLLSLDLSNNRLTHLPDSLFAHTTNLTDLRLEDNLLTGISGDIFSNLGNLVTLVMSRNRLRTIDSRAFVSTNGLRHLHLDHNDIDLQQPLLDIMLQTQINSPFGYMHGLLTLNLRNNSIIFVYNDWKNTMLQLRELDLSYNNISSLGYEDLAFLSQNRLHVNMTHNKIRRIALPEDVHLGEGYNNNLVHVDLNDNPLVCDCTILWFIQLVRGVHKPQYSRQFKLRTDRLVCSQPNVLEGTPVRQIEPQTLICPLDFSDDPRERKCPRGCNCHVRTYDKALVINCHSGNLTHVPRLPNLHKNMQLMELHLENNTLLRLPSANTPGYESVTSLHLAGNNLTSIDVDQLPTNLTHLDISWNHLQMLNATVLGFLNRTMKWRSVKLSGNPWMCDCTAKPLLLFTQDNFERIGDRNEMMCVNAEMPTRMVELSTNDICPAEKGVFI
# T2: TollN13-VLR (Toll N-terminal region up to LRR13 fused to VLR B.61 residues 133-201) (Drosophila melanogaster | hagfish, UniProt P08953 28-397; Q4G1L2 133-201)
# T2 construct: Toll, Drosophila melanogaster, UniProt P08953, residues 28-397 (first 13 LRRs); cloned as residues 1-397 with its own signal peptide; the results say 'up to Leu 398 in LRR13'; variable lymphocyte receptor (VLR) B.61 of hagfish, residues Asn 133-Thr 201 (LRRCT cap); C-terminal limit of the Toll part is printed as 397 (methods, discussion) and as Leu 398 (results); also called larger Toll …
# T2 chain (looked up): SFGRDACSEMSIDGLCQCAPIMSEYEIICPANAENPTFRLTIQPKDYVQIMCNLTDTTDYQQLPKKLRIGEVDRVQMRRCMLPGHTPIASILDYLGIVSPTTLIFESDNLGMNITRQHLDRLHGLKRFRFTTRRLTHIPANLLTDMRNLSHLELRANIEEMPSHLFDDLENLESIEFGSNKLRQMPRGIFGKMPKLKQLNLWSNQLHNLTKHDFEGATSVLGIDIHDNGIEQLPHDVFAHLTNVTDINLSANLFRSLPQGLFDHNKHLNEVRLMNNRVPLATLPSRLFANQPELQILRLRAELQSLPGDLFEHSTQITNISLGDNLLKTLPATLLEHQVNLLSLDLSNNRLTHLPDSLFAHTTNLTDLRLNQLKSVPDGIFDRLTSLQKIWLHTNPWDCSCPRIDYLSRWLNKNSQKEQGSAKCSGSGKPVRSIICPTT
# B1: Spätzle C-106 (C-terminal active fragment of 106 amino acids of processed Spätzle) (ligand, Drosophila melanogaster, UniProt P48607 221-326, looked up)
# chain: VGGSDERFLCRSIRKLVYPKKGLRADDTWQLIVNNDEYKQAIQIEECEGADQPCDFAANFPQSYNPICKQHYTQQTLASIKSDGELDVVQNSFKIPSCCKCALKTG
# notes: Spätzle (Spz), Drosophila melanogaster; also called cleaved Spz; source: baculovirus expression system, His-tagged Spätzle, purified
# Columns and labels:
# [1] = target: TollN6-VLR (hybrid of Toll residues 28-228 and variable lymphocyte receptor B.61 residues 133-201) (Drosophila melanogaster | hagfish) (UniProt P08953); assay: dynamic light scattering; 100 mM NaCl, 50 mM Tris-HCl pH 7.0, about 200 μg/ml; Z-average diameter 12.7 nm, polydispersion index about 0.1
# [2] = target: Toll (Drosophila melanogaster) (UniProt P08953); conditions: cited from earlier work
# [3] = target: single and double mutations of Cys 34, Cys 43 and Cys 45 in the Toll-TLR4 chimera
# [4] = target: T1, full-length Toll ECD (extracellular …); assay: SEC; data not shown; same preparation of C-106 with full-length Toll ECD, complexes elute as 280 kDa species; conditions: both partners purified
# [5] = target: T2, TollN13-VLR (Toll N-terminal region up …); assay: SEC; gel filtration of the Toll-VLR constructs alone and mixed with Spz C-106 (TollN6-VLR and C-106 in equimolar concentrations); conditions: both partners purified
molecule,measurement,setting,value
TollN6-VLR (hybrid of Toll residues 28-228 and variable lymphocyte receptor B.61 residues 133-201) (from UniProt P08953 28-228; Q4G1L2 133-201) (domain or fragment),stoichiometry N,[1],4
Toll (from UniProt P08953),Kd,[2],2000 nM
B1,"NF-κB luciferase reporter in HEK293ET cells transfected with the Toll-TLR4 chimera, 24 hr after Spz stimulation at 10 nM; decrease of the signal against the wild-type chimera",[3],10 % decrease
same,stoichiometry N,[4],1 ratio (2:2 as printed)
same,stoichiometry N,[5],1 ratio (1:1 as printed)
